assay: yeast display, Sf9 membrane polyspecificity reagent, FACS + sequencing; frameworks hold sequencing errors
Method in brief: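 A synthetic nanobody library was expressed on Saccharomyces cerevisiae BJ5465 by galactose induction for 36–48 hours. The library was stained for 1 hour at 4 °C with 10% biotinylated, detergent-solubilized Sf9 membrane reagent and enriched with streptavidin microbeads before FACS. Low and high (top ~1%) gates were set on anti-HA fluorescence for expression and streptavidin fluorescence for reagent binding, and each polyreactivity label reflects the gate of origin.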

Which “polyreactivity (PSR sort gate)” value does the source give for “QVQLVESGGGLVQAGGSLRLSCAASGSIFQGYAMGWYRKAPGKERELVAAITSSGGSTRYADSVKGRFTISRDNAKNTVYLQMNSLKPEDTAVYYCAARYKWPYDYWGQGTQVTVSS” here?
Its value is “high polyreactivity”.

Which “polyreactivity (PSR sort gate)” value does the source give for “QVQLVESGGGLVKAGGSLRLSCASSGYIFPFNAMGWYRQAPGKERELVAAITNGGRTYYADSVKGRFTISRDNAKNTVYLQMNSLKPDDTSVYYCAAGSKSDMDWGQGTQVTVSS” here?
The value was “low polyreactivity”.

With “QVQQQESGGGLVQAGGSLRQSYAASGYIFPSLAMGWYRQAPGKEREFVAAIGRGSTNNYADSVKGRFTISRDNAKNTAYQQMNSLKPEDTAVYYSAAAASPLTRHLYWGQGTQVNVSS” as the sequence, how does the “polyreactivity (PSR sort gate)” value read?
Its value is “low polyreactivity”.

With “QVQLVESGGGLVQAGGSLRLSCAASGFTIVYYAMGWYRQAPGKERELVAVISSRGGSTYYADSVKGRFTISRDNAKNTVYLQMNSLKPEDTAVYYCAARGRGQPFVRYDYWGQGTQVTVSS” as the sequence, how does the “polyreactivity (PSR sort gate)” value read?
Its value is “high polyreactivity”.

With “QVQLVESGGGLVQAGGSLRLSCAASGITFGRYAMGWYRQAPGKERELVAAITWSGGSTYYADSVKGRFTISRDNSKNTVYLQMNSLKPEDTAVYYCAATWYPGRAGYYYWGQGTQVTVSS” as the sequence, how does the “polyreactivity (PSR sort gate)” value read?
The value was “high polyreactivity”.

Which “polyreactivity (PSR sort gate)” value does the source give for “QVQLVESGGGLVQAGGSLRLSCAASGFIFWTYAMGWYRQAPGKERELVARISWSGGSTYYADSVKGRFTISRDNAKNTVYLQMNSLKPEDTAVYYCARLATLYESIEYDYWGQGTQVTVSS” here?
Its value is “low polyreactivity”.

Which “polyreactivity (PSR sort gate)” value does the source give for “QVQLVESGGGLVQEGGSLRLSCAASGFTFPYYAMGWYRQAPGKERELVAAITSSGTITYYADSVKGRFTISRDNAKNTVYLQMNSLKPEDTAVYYCAARFSSTRYLQWYYYWGQGTQVTVSS” here?
Its value is “high polyreactivity”.

With “QVQLVESGGGLVQAGGSLRLSCAASGRTFLLYAMGWYRQAPGKERELVARITGRGGRTYYADSVKGRFTISRDNAKNTVYLQMNSLKPEDTAVYYCNKRYPLGTEYYYWGQGTQVTVSS” as the sequence, how does the “polyreactivity (PSR sort gate)” value read?
Its value is “high polyreactivity”.

With “QVQLVESGGGLVQAGGSLRLICAASGRTFGVNAMGWYRQAPGKERELVASIRWNGGSTYYADSVKGRFTISRDNAKNTVYLQMNSLKPEDTAVYYCNAVRRYRSREFDYWGQGTQVTVSS” as the sequence, how does the “polyreactivity (PSR sort gate)” value read?
The value was “low polyreactivity”.

With “QVQLVESGGGLVQAGGSLRLSCAACGITFPTNMGWYRQAPGKERELVAAIRLSGGSTSYADSVKGRFTISRDNAKNSVYLQMTSLKPEDTAVSSCAAGGYPGGEDYWGQGTQVTVSS” as the sequence, how does the “polyreactivity (PSR sort gate)” value read?
Its value is “low polyreactivity”.

With “QVHLVESGGGLVQAGGSLRISCAASGRTFYIYAMGWYRQAPGKERELVAAISWGSGSTYYADSVKGRFTISRDNAKNTVYLQMNSLKPEDTAVYYCAADYAYPSEWTYDYWGQGTQVTVSS” as the sequence, how does the “polyreactivity (PSR sort gate)” value read?
Its value is “low polyreactivity”.

With “QVQLVESGGGLVQAGGSLRLSCAASGRTFYYYAMGWYRHAPGKERELVAAISIGGITYADSVKGRFTISRDNAKNTVYLQMNSLKPEDTAVYYCAATARQSRGRFYWGQGTQVTVSS” as the sequence, how does the “polyreactivity (PSR sort gate)” value read?
The value was “low polyreactivity”.

For “QVQLVESGGGLVQAGGTLRLSCAASGRIFVINTMGWYRQAPGKERELVAAISRGGSTNYADSLKGRFTISRDNAKNTVYLQMNSLKPEDTAVYYCAATGYILFAGGGYDYWGQGTQVTVSS”, which “polyreactivity (PSR sort gate)” value is on record?
Its value is “low polyreactivity”.

With “QVQLVESGGGLVQAGGSLRLSCAASGLIFGVNAMGLYRQAPGTESELVAAITSRGGSTYYADSVKGRFTISRDNAKNTVYLQMNSLKPEDTAVDYCAAKYAYYEPYSWRPQRTYNYWGQGTQVTVSS” as the sequence, how does the “polyreactivity (PSR sort gate)” value read?
The value was “high polyreactivity”.

With “QGQLVESGGGLVQAGGSLRLSCAASGITFYSYAMGWYRQAPGKERELVAAITLTGGTTYYADSVKGRFTISRDNAKNTVYLQMNSLKPEDTAVYYCNSDYGGGVDGTYKYYSEYDYWGQGTQVTVSS” as the sequence, how does the “polyreactivity (PSR sort gate)” value read?
Its value is “low polyreactivity”.

For “QVQLVESRGGLVQARGSLRLSCAASGSTLFRYTKGWYRQAPGKERELVAAITRSGGNTFYADSVKGRFTISRDNSKNTVYLQMNSLKPEDTAVYYCAARARYVNCQGFDYWGQVTQVTVSS”, which “polyreactivity (PSR sort gate)” value is on record?
Its value is “high polyreactivity”.

With “QVQLLESGGGLVQAGGSLRLSCAASGITFEHYAMGWYRPAPGKERELVAAITWSGDSTNYADSVKGRFTISRDNAKNTVYLQMNSLNPEDTAVYYCAAYAYAGLYSGTWGYDYWGQGTQVTVSS” as the sequence, how does the “polyreactivity (PSR sort gate)” value read?
The value was “low polyreactivity”.

Which “polyreactivity (PSR sort gate)” value does the source give for “QVQHVESGGGLVQAGGSLRLSCAASGSIFAHYTMGWYRQAPGKERELVAVISRSGARTYYADSVKGRFTISRDNAKNTVYLQMNSLKPEDTAVYYCAADRNLEEDYWGLGTQVTVSS” here?
The value was “low polyreactivity”.

Which “polyreactivity (PSR sort gate)” value does the source give for “QVQLVESGGGLVQAGGSLRVSCAASGFTFSHYAMGWYRQAPGKERELVAAISWGGGSTYYADSVKGRFTISRDNAQNTVYLQMNSLKPEDTAVYYCAARYVLFSNRFDYWGQGTQVTVSS” here?
The value was “high polyreactivity”.

Which “polyreactivity (PSR sort gate)” value does the source give for “QVQLVESGGGLVQAGGSLRLSCAASGSIFTSYAMGWYRQAPGTERELVAVITSSGSSTYYADSVKGRFTISRDNAKNTVYLQMNSMKPEDTAVYYCYGYYDAYGYWGQGTQVTVSS” here?
The value was “low polyreactivity”.

With “QVQLVESGGGLVQAGGSLRLSCAASGGTFTKNPMGWYRQAPGKERELVATITFSDGSTYYADSVKGRFTISRDNAKNTVYLQMNSLKPEDTAVYYCNARRSYFLRYGVNYWGQGTQVTVSS” as the sequence, how does the “polyreactivity (PSR sort gate)” value read?
The value was “low polyreactivity”.

With “QVHLVESGGGLVQAGGSLRLSCAASGRTFRIYAMGWYRPAPGKERELVAAISRSSTSTYYADSVKGRFTISRDNAKNTVYLQMNSLKPEDTAVYYCAAVVTVQYSQPYDHWGQGTQVTVSS” as the sequence, how does the “polyreactivity (PSR sort gate)” value read?
Its value is “high polyreactivity”.

For “QVQLVESGGGLVQAGGSLRLSCAASGSTFISYAMGWYRQAPGKERELVAAISYRGGSTRYADSVKGRFTISRDNAKNTVYLQMNSLKPEDTAVYYCAAYTRKSHIREYDYWGQGTQVTVSS”, which “polyreactivity (PSR sort gate)” value is on record?
The value was “high polyreactivity”.

With “QVQLVESGGGLVQAGGSLRLSCAASGSIFWYYTMGWYRQAPGKERELVATITRSGSRTYYADSVKGRFTISRDNAKNTVYLQMNSLNPEDTAVYYCAKDFGRWTYDYWGQATQVTVSS” as the sequence, how does the “polyreactivity (PSR sort gate)” value read?
The value was “low polyreactivity”.

With “QVQLVESGGGLVQAGGSLRLSCAASEGWYRQAPGKERELVAAISYIGGSTYYADSVKGRFTISRDNAKNTVYLQMNSLKPEDTAVYYCAKGYPDPQWGGVLAYDYWGQGTQVTVSS” as the sequence, how does the “polyreactivity (PSR sort gate)” value read?
The value was “low polyreactivity”.

For “QVQLQEIGGGLVQAGRSLRLSCAASGSISRLDYMGWYRQASGKERELVAAIDNGSTTYYADSVKGRLTISRDNAKYTVYLQMNSLKPEDTAVYFCAAVRGRGGTHAYWGQGTQVTVSG”, which “polyreactivity (PSR sort gate)” value is on record?
The value was “low polyreactivity”.

Which “polyreactivity (PSR sort gate)” value does the source give for “QVQLVESGGGLVQAGGSLRLSCAASGRIFGWNAMGWYRQAPGKERELVASIRSGGRTNYADSVKGRFTISRDNAKNTVYLQMNSLKPEDTAVYYCAVGPYYQSTQIYDYWGQGTQVTVSS” here?
The value was “low polyreactivity”.

With “QVQLVESGGGLVQAGGSLRLSCAASGSTSASYAMGWYRKAPGKERELVAAISGRGTTTYYADSVKGRFTISRDIAKNSVYLQMNSLKPEDTAVYYCAVYRRGGVEAFLYWGQGTQVTVSS” as the sequence, how does the “polyreactivity (PSR sort gate)” value read?
Its value is “high polyreactivity”.

With “QVQLVESGGGLVQAGGSLRLSCAASGSTLAYNAMGWYRQAPGKERELVATINFSGGSTYYADSVKGRFTISRDNSKNTVYLQMNSLKPEDTAVYYCNARGYWQYSPTKFDYWGQGTQVTVSS” as the sequence, how does the “polyreactivity (PSR sort gate)” value read?
The value was “low polyreactivity”.

With “QVQLVESGGGLVQAGGSLRLSCAASGSTFAYNAMGWYRQAPGKERELVARISSSGDITYYADSVKGRFTISRDNAKNTVYLQMNCLKPEDTAVYYCAKRYLTRYKGYYYWGQGTQVTVSS” as the sequence, how does the “polyreactivity (PSR sort gate)” value read?
Its value is “high polyreactivity”.

With “QVHLVESGGGLVQAGGSLRLSCAASGSILPFNAMGWYRQAPGKDRELVAAIDGSGGDTYYADSVKGRFTISRDNAKNTVYLHMNSLKPEDTAVYYCAAEYYYTSQLAKYHYGYEYWGQGTQVTVSS” as the sequence, how does the “polyreactivity (PSR sort gate)” value read?
Its value is “high polyreactivity”.

For “QVQLVESGGGLVQAGGSLRLSCAASGSIFSDYAMGWYRQAPGKETELVAGISSGGGTTYADSVKGRFTISRDNAKNTVYLQMNSLKPEDTAVYYCNKQDQPVGRSGYPYGYDYWGQGTQVTVSS”, which “polyreactivity (PSR sort gate)” value is on record?
Its value is “low polyreactivity”.

For “QVQLVESGGGLVQAGGSLRLSCAASGRIFYPYAMGWSRQAPGKERELVAAISSSAGITYYADSVKGRFTISRDNAKKTVYLQMNSLKPEDTAVYYCAKYPVRNPYGYRYDYWGQGTQVTVSS”, which “polyreactivity (PSR sort gate)” value is on record?
The value was “high polyreactivity”.

For “QVQLVESGGGLVQAGGSLRLSCAASGRTFILYTMGWYRQAPGKERELVAAITTGGSTSYADSVKGRVTISRDNAKNTVYLQMNSLKPEDTAVYYCNALSRLRYKPRLYDYWGQGTQVTVSS”, which “polyreactivity (PSR sort gate)” value is on record?
The value was “low polyreactivity”.

For “QFQLVESGGGLDQAGGSLRLSCAASGSTSRKYTMGWYRQAPGTDRELVATISWSGGSTNYADSVKGRFTISRDNAKNTVYLQMNSLKPEDTAVYYCNAYVSPRYRGSRYYYWGQGTQVTVSS”, which “polyreactivity (PSR sort gate)” value is on record?
The value was “high polyreactivity”.

Which “polyreactivity (PSR sort gate)” value does the source give for “QVQLVESGGGLVQAGGSLRLSCAASGFTFAFYTMGWSRPAPGKESELVAGITRSGTNTYYADSLTGRFTISRDNAKNTVYLLLNSLTPEDTAVYYCAAAIRPGMDYWGQGTQVTVSS” here?
Its value is “high polyreactivity”.

Which “polyreactivity (PSR sort gate)” value does the source give for “QVQLVESGGGLVQAGGSLRLSCAASGSTFYIYDMGWYRQAPGKEREFVAAIDFSGSSTYADSVKGRFTISRDNAKNTVYFQINSLKPDDSAVFDCAAYQIYQYDGPYVYWGQGTQVTVSS” here?
The value was “low polyreactivity”.

With “QVQLVESGGGLVQAGGSLRLSCASSVIILVQYVMGWYIQAPGKERELVASISRTGGSTNYADSVKGRFTISRDNAKNTVYLQMNSLKPEDTAVYYCSAKKRKIAGVGGDYWGQGTQVTVSS” as the sequence, how does the “polyreactivity (PSR sort gate)” value read?
The value was “high polyreactivity”.

For “QVQLVESGGGLVQAGGSLRLSSAASGRTFYDYAMGWYRQAPGKERELVAAITYSGGSTFYADSVKGRFTISRDNAKNTVYLQMNSLTPEDTAVYYCAAEVLRLGGAAEYDYCGQGTQVTVSS”, which “polyreactivity (PSR sort gate)” value is on record?
Its value is “low polyreactivity”.

Which “polyreactivity (PSR sort gate)” value does the source give for “QVQLVESGGGLVQAGGSLRLSCAASGSIFALYTMGWYRPAPGKERELVAAISRRGGNTYYADSVKGRFTISRDNAKNTVYLQMNSLKPEDTAVYYCNADRLRSTHDYWGQGTQVTVSS” here?
The value was “high polyreactivity”.

With “QVQLVESGGGLVQAGGSLRLSCAASGSIFGRNAKGWYRQAPRKERELVAAINSGGSTNYADSVKGRFTISRDNAKNTVYLQMNSLKPEDTAVYYCAARTYSSGRYYGYVAFYYWGQGTQVTVSS” as the sequence, how does the “polyreactivity (PSR sort gate)” value read?
Its value is “high polyreactivity”.

Which “polyreactivity (PSR sort gate)” value does the source give for “QVQLVESGGGLVQAGGSLRLSCAASGYIFQPYAMGWYRQAPGKERELVAAISWRGGTTYYADSVKGRFTISRDNAKITVYLQMNSLKPEDTAVYDCAKDYYYGLDHYGYWGQGTQVTVSS” here?
Its value is “low polyreactivity”.

With “QVQLVESGGGLVQAGGSLRLSCAASGFTFGGYVMGWYRQAPGKERELVAAINQTGGSTYYADSVKGRFTISRDNAKNTVYLQMNSLKPEDTAVYYCAALGYHGYRNYDYWGQGTQVTVSS” as the sequence, how does the “polyreactivity (PSR sort gate)” value read?
The value was “low polyreactivity”.

— the nanobody polyreactivity screen of Harvey et al. (2022)
